The record followed here is patent US20130303441.

Changes are numbered by the printed parent chain. In names and notes the source's numbering stands.

T1: L803-mts, cell permeable variant of L803 with myristic acid attached to its N-terminal
T1 chain: GKEAPPAPPQSP

T2: p9CREB peptide substrate, ILSRRPS(p)YR
T2 chain: ILSRRPSYR

T3: pGS-1 peptide substrate, YRRAAVPPSPSLSRHSSPSQS(p)EDEEE
T3 chain: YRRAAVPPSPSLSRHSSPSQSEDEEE

T4: pIRS-1 peptide substrate, RREGGMSRPAS(p)VDG
T4 chain: RREGGMSRPASVDG

B1: wild-type (WT) GSK-3β (protein)
chain: MSGRPRTTSFAESCKPVQQPSAFGSMKVSRDKDGSKVTTVVATPGQGPDRPQEVSYTDTKVIGNGSFGVVYQAKLCDSGELVAIKKVLQDKRFKNRELQIMRKLDHCNIVRLRYFFYSSGEKKDEVYLNLVLDYVPETVYRVARHYSRAKQTLPVIYVKLYMYQLFRSLAYIHSFGICHRDIKPQNLLLDPDTAVLKLCDFGSAKQLVRGEPNVSYICSRYYRAPELIFGATDYTSSIDVWSAGCVLAELLLGQPIFPGDSGVDQLVEIIKVLGTPTREQIREMNPNYTEFKFPQIKAHPWTKDSSGTGHFTSGVRVFRPRTPPEAIALCSRLLEYTPTARLTPLEACAHSFFDELRDPNVKLPNGRDTPALFNFTTQELSSNPPLATILIPPHARIQAAASTPTNATAASDANTGDRGQTNNAASASASNST
B2: GSK-3β F93A mutant (protein)
chain: B1 chain with F93A
B3: GSK-3β K94A mutant (protein)
chain: B1 chain with K94A
B4: GSK-3β K91A mutant (protein)
chain: B1 chain with K91A
B5: GSK-3β D90A mutant (protein)
chain: B1 chain with D90A
B6: GSK-3β R92A mutant (protein)
chain: B1 chain with R92A

One series deals with T1, L803-mts, cell permeable variant of ….
For B1, the “in vitro kinase assays using pIRS-1, p9CREB and pGS-1 substrate in the presence or absence of L803-mts (100 µM)” value is on record as “L803-mts competes with various substrates”.

The next series addresses T2, p9CREB peptide substrate, ILSRRPS(p)YR.
Take B2: the Substrate phosphorylation (% of WTGSK-3β), in vitro kinase assay (% of WT GSK-3β) turned out to be 46.
Same read-out and setting: for B3 the value was 71; for B4, 161.
Regarding B5, the Substrate phosphorylation (% of WTGSK-3β), in vitro kinase assay (% of WT GSK-3β) is 92.
On the same count and under the same terms, as for B6, the figure is 49.

The next series has as its target T3, pGS-1 peptide substrate, ….
Turning to B2, the Substrate phosphorylation (% of WTGSK-3β), in vitro kinase assay (% of WT GSK-3β) was found to be 13.
Still for that read-out and setting: as for B3, the figure is 19.
Same read-out and setting: for B4 the value was 119; for B5, 83; for B6, 41.

A further series deals with T4, pIRS-1 peptide substrate, ….
On to B2, for which the Substrate phosphorylation (% of WTGSK-3β), in vitro kinase assay (% of WT GSK-3β) was found to be 42.
In turn, B3 gave a Substrate phosphorylation (% of WTGSK-3β), in vitro kinase assay (% of WT GSK-3β) of 52.
The same measure, in the same setting: for B4 the value was 140; for B5, 88.
Same read-out and setting: as for B6, the figure is 60.
